According to patent US20260049138A1 (Chugai, published 2026):
Substitutions are numbered along the chain they refer to. In names and notes the source's numbering stands.

B1: CE115HA000 W33L one-arm antibody (antibody, human IgG1, kappa, L234A L235A, N297A, name in Kabat numbering)
heavy: QVQLVESGGGVVQPGRSLRLSCAASGFTFSNALMHWVRQAPGKGLEWVAQIKAKSNNYATYYAESVKGRFTISRDDSKNSLYLQMNSLKTEDTAVYYCRYVHYGAYYGVDAWGQGTTVTVSSASTKGPSVFPLAPSSKSTSGGTAALGCLVKDYFPEPVTVSWNSGALTSGVHTFPAVLQSSGLYSLSSVVTVPSSSLGTQTYICNVNHKPSNTKVDKKVEPKSCDKTHTCPPCPAPEAAGGPSVFLFPPKPKDTLMISRTPEVTCVVVDVSHEDPEVKFNWYVDGVEVHNAKTKPREEQYASTYRVVSVLTVLHQDWLNGKEYKCKVSNKALPAPIEKTISKAKGQPREPQVYTLPPSRCELTKNQVSLSCAVKGFYPSDIAVEWESNGQPENNYKTTPPVLDSDGSFFLVSKLTVDKSRWQQGNVFSCSVMHEALHNHYTQKSLSLSPDYKDDDDK
chain: EPKSSDKTHTCPPCPAPELLGGPSVFLFPPKPKDTLMISRTPEVTCVVVDVSHEDPEVKFNWYVDGVEVHNAKTKPREEQYNSTYRVVSVLTVLHQDWLNGKEYKCKVSNKALPAPIEKTISKAKGQPREPQVCTLPPSRDELTKNQVSLWCLVKGFYPSDIAVEWESNGQPENNYKTTPPVLDSDGSFFLYSKLTVDKSRWQQGNVFSCSVMHEALHNRYTQKSLSLSP
light: DIVMTQSPLSLPVTPGEPASISCRSSQSLVHSNRNTYLHWYQQKPGQAPRLLIYKVSNRFSGVPDRFSGSGSGTDFTLKISRVEAEDVGVYYCGQGTQVPYTFGQGTKLEIKRTVAAPSVFIFPPSDEQLKSGTASVVCLLNNFYPREAKVQWKVDNALQSGNSQESVTEQDSKDSTYSLSSTLTLSKADYEKHKVYACEVTHQGLSSPVTKSFNRGEC
B2: CE115HA000 Y100K one-arm antibody (antibody, human IgG1, kappa, L234A L235A, N297A, name in Kabat numbering)
heavy: B1 heavy with L33W, Y106K
chain: B1 chain
light: B1 light
B3: CE115HA000 Y97A one-arm antibody (antibody, human IgG1, kappa, L234A L235A, N297A, name in Kabat numbering)
heavy: B1 heavy with L33W, Y103A
chain: B1 chain
light: B1 light
B4: CE115HA000 W33Y one-arm antibody (antibody, human IgG1, kappa, L234A L235A, N297A, name in Kabat numbering)
heavy: B1 heavy with L33Y
chain: B1 chain
light: B1 light
B5: CE115HA000 Y55S one-arm antibody (antibody, human IgG1, kappa, L234A L235A, N297A, name in Kabat numbering)
heavy: B1 heavy with L33W, Y58S
chain: B1 chain
light: B1 light
B6: CE115HA000 Y55D one-arm antibody (antibody, human IgG1, kappa, L234A L235A, N297A, name in Kabat numbering)
heavy: B1 heavy with L33W, Y58D
chain: B1 chain
light: B1 light
B7: CE115HA000 Y58S one-arm antibody (antibody, human IgG1, kappa, L234A L235A, N297A, name in Kabat numbering)
heavy: B1 heavy with L33W, Y61S
chain: B1 chain
light: B1 light
B8: CE115HA000 Y100P one-arm antibody (antibody, human IgG1, kappa, L234A L235A, N297A, name in Kabat numbering)
heavy: B1 heavy with L33W, Y106P
chain: B1 chain
light: B1 light
B9: CE115HA000 Y59E one-arm antibody (antibody, human IgG1, kappa, L234A L235A, N297A, name in Kabat numbering)
heavy: B1 heavy with L33W, Y62E
chain: B1 chain
light: B1 light
B10: CE115HA000 Y100L one-arm antibody (antibody, human IgG1, kappa, L234A L235A, N297A, name in Kabat numbering)
heavy: B1 heavy with L33W, Y106L
chain: B1 chain
light: B1 light
B11: CE115HA000 Y58A one-arm antibody (antibody, human IgG1, kappa, L234A L235A, N297A, name in Kabat numbering)
heavy: B1 heavy with L33W, Y61A
chain: B1 chain
light: B1 light
B12: CE115HA000 Y100V one-arm antibody (antibody, human IgG1, kappa, L234A L235A, N297A, name in Kabat numbering)
heavy: B1 heavy with L33W, Y106V
chain: B1 chain
light: B1 light
B13: CE115HA000 Y97G one-arm antibody (antibody, human IgG1, kappa, L234A L235A, N297A, name in Kabat numbering)
heavy: B1 heavy with L33W, Y103G
chain: B1 chain
light: B1 light
B14: CE115HA000 Y58D one-arm antibody (antibody, human IgG1, kappa, L234A L235A, N297A, name in Kabat numbering)
heavy: B1 heavy with L33W, Y61D
chain: B1 chain
light: B1 light
B15: CE115HA000 Y58K one-arm antibody (antibody, human IgG1, kappa, L234A L235A, N297A, name in Kabat numbering)
heavy: B1 heavy with L33W, Y61K
chain: B1 chain
light: B1 light
B16: CE115HA000 Y55G one-arm antibody (antibody, human IgG1, kappa, L234A L235A, N297A, name in Kabat numbering)
heavy: B1 heavy with L33W, Y58G
chain: B1 chain
light: B1 light
B17: CE115HA000 Y97P one-arm antibody (antibody, human IgG1, kappa, L234A L235A, N297A, name in Kabat numbering)
heavy: B1 heavy with L33W, Y103P
chain: B1 chain
light: B1 light
B18: CE115HA000 Y100D one-arm antibody (antibody, human IgG1, kappa, L234A L235A, N297A, name in Kabat numbering)
heavy: B1 heavy with L33W, Y106D
chain: B1 chain
light: B1 light
B19: CE115HA000 Y100S one-arm antibody (antibody, human IgG1, kappa, L234A L235A, N297A, name in Kabat numbering)
heavy: B1 heavy with L33W, Y106S
chain: B1 chain
light: B1 light
B20: CE115HA000 Y58Q one-arm antibody (antibody, human IgG1, kappa, L234A L235A, N297A, name in Kabat numbering)
heavy: B1 heavy with L33W, Y61Q
chain: B1 chain
light: B1 light
B21: CE115HA000 Y59D one-arm antibody (antibody, human IgG1, kappa, L234A L235A, N297A, name in Kabat numbering)
heavy: B1 heavy with L33W, Y62D
chain: B1 chain
light: B1 light
B22: CE115HA000 Y100A one-arm antibody (antibody, human IgG1, kappa, L234A L235A, N297A, name in Kabat numbering)
heavy: B1 heavy with L33W, Y106A
chain: B1 chain
light: B1 light
B23: CE115HA000 Y58N one-arm antibody (antibody, human IgG1, kappa, L234A L235A, N297A, name in Kabat numbering)
heavy: B1 heavy with L33W, Y61N
chain: B1 chain
light: B1 light
B24: CE115HA000 Y59S one-arm antibody (antibody, human IgG1, kappa, L234A L235A, N297A, name in Kabat numbering)
heavy: B1 heavy with L33W, Y62S
chain: B1 chain
light: B1 light
B25: CE115HA000 Y97R one-arm antibody (antibody, human IgG1, kappa, L234A L235A, N297A, name in Kabat numbering)
heavy: B1 heavy with L33W, Y103R
chain: B1 chain
light: B1 light
B26: CE115HA000 Y97S one-arm antibody (antibody, human IgG1, kappa, L234A L235A, N297A, name in Kabat numbering)
heavy: B1 heavy with L33W, Y103S
chain: B1 chain
light: B1 light
B27: CE115HA000 Y58L one-arm antibody (antibody, human IgG1, kappa, L234A L235A, N297A, name in Kabat numbering)
heavy: B1 heavy with L33W, Y61L
chain: B1 chain
light: B1 light
B28: CE115HA000 Y97D one-arm antibody (antibody, human IgG1, kappa, L234A L235A, N297A, name in Kabat numbering)
heavy: B1 heavy with L33W, Y103D
chain: B1 chain
light: B1 light
B29: CE115HA000 Y59A one-arm antibody (antibody, human IgG1, kappa, L234A L235A, N297A, name in Kabat numbering)
heavy: B1 heavy with L33W, Y62A
chain: B1 chain
light: B1 light
B30: CE115HA000 Y100G one-arm antibody (antibody, human IgG1, kappa, L234A L235A, N297A, name in Kabat numbering)
heavy: B1 heavy with L33W, Y106G
chain: B1 chain
light: B1 light
B31: CE115HA000 Y100Q one-arm antibody (antibody, human IgG1, kappa, L234A L235A, N297A, name in Kabat numbering)
heavy: B1 heavy with L33W, Y106Q
chain: B1 chain
light: B1 light

molecular target: T1, CD3ε homodimer protein (human, UniProt P07766 23-126, limits assumed, sulfo-tag or biotin label in the ECL assays; amine-coupled to the chip in SPR); assay: SPR Biacore T200; CD3ε homodimer on CM4 chip;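 further: Single-residue variant antibodies injected as analyte over CD3ε homodimer immobilized by amine coupling, run at 25 °C in HBS-EP+ buffer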
T1 construct: also called human CD3ε homodimer protein; CD3 (CD3ε)
T1 sequence (P07766 23-126 limits assumed): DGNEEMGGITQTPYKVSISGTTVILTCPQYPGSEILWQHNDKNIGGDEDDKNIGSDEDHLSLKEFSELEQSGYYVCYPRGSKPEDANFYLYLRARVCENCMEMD
Description: An appropriate amount of CD3ε homodimer protein was immobilized onto Sensor chip CM4 (GE Healthcare Japan Corp.) by the amine coupling method. Then, the antibody having an appropriate concentration was injected thereto as an analyte and allowed to interact with the CD3ε homodimer protein on the sensor chip. Then, the sensor chip was regenerated by the injection of 10 mmol/L glycine-HCl (pH 1.5). The assay was conducted at 25° C., and HBS-EP+ (GE Healthcare Japan Corp.) was used as a running buffer. […] Each parameter was calculated using Biacore T200 Evaluation Software (GE Healthcare Japan Corp.).

In order of falling “ratio of amounts bound Z=Y/X (altered form / CE115HA000)” value:
1. B2  1.07
2. B30  1.07
3. B24  0.94
4. B22  0.9
5. B9  0.86
6. B29  0.85
7. B19  0.81
8. B31  0.8
9. B10  0.7
10. B21  0.7
11. B4  0.66
12. B16  0.65
13. B12  0.6
14. B18  0.52
15. B8  0.48
16. B6  0.45
17. B23  0.33
18. B15  0.3
19. B25  0.27
20. B27  0.27
21. B5  0.26
22. B28  0.24
23. B11  0.22
24. B20  0.19
25. B7  0.18
26. B13  0.18
27. B26  0.18
28. B3  0.16
29. B14  0.11
30. B17  0.11
31. B1  0.1
